Substitutions are numbered along the chain they refer to. Blank lines part the entries; values can stand above or below the binder they belong to.
Tests used:
[1] = target: T1, claudin-18.2 antigen (manufacturer: GenScript, batch number: R50092011) (UniProt P56856-2 1-261, limits assumed); experiment: ELISA, plate coated with claudin-18.2 antigen
T1 construct: Bought antigen
T1 sequence (looked up): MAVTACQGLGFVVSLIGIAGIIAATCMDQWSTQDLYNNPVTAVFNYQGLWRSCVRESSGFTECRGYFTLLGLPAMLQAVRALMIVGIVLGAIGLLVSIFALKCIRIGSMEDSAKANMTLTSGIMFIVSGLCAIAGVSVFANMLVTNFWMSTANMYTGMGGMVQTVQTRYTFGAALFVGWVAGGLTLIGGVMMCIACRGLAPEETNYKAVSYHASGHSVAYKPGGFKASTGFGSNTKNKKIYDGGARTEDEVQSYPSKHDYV
Description: The ELISA plates were washed three times with PBST and blocked with 5% PBS-milk for 2 h at room temperature. The ELISA plate was washed three times with PBST, and the diluted antibodies were added to the ELISA plate, 30 μL per well, and incubated at room temperature for 60 min. The plates were washed three times with PBST and incubated with anti-human IgG-Fc-HRP (abcam, ab97225) for 50 min at room temperature. The plate was washed 12 times with PBST, and TMB was added, 30 μL per well. The reaction was terminated with stop solution and OD450 was read. The ELISA affinity EC50 was calculated.

[2] = target: T1, claudin-18.2 antigen (manufacturer: …); experiment: Gator label-free kinetics, antibody loaded, antigen 2000-500 nM
Description: The GATOR instrument and associated software were opened and the Kinetics experimental mode was selected. After data collection, Kinetics fitting was performed to calculate the affinity kinetic parameters. The correlation coefficient R² of all antibodies in the Global fitting mode was greater than 0.95, which met the system suitability requirements and the results were reliable.

- EC50 [1]: 0.0576 µg/mL
- Kd [2]: 0.289 nM
- koff [2]: 2.94e-06 s⁻¹
- kon [2]: 10200 M⁻¹ s⁻¹
B1: 1E7-huVH3-HC (IgG1) huVL2 (antibody)
heavy: not shown
light: DIQMTQSPSSLSASVGDRVTMTCKSSQSLLNSGNQKNYLTWYQQKPGKAPKLLIYWASTRESGVPSRFSGSGSGTDFTLTISSLQPEDFATYYCQNDYSYPFTFGGGTKLEIKRTVAAPSVFIFPPSDEQLKSGTASVVCLLNNFYPREAKVQWKVDNALQSGNSQESVTEQDSKDSTYSLSSTLTLSKADYEKHKVYACEVTHQGLSSPVTKSFNRGEC
notes: humanized 1E7, human IgG1, kappa

- EC50 [1]: 0.245 µg/mL
- Kd [2]: 12.7 nM
- koff [2]: 0.000121 s⁻¹
- kon [2]: 9480 M⁻¹ s⁻¹
B2: 1B6-huVH3huVL2 (antibody, human IgG4 S228P, kappa)
heavy: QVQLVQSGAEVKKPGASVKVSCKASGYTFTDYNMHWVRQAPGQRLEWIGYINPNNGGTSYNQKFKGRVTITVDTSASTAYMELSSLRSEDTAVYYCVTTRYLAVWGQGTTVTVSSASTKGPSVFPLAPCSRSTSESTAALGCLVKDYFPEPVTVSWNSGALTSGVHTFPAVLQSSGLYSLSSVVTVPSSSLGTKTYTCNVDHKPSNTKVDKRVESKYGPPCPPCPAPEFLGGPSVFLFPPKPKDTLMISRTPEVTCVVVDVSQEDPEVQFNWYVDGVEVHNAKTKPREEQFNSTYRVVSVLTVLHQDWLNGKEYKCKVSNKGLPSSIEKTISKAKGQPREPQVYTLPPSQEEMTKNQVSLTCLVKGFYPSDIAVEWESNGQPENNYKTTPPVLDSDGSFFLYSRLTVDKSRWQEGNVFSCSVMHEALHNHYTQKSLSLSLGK
light: B1 light with L30F, F102L
notes: humanized 1B6, human IgG4, kappa

- EC50 [1]: 0.56 µg/mL
- Kd [2]: 2.02 nM
- koff [2]: 2.08e-05 s⁻¹
- kon [2]: 10300 M⁻¹ s⁻¹
B3: 1E7-huVH3huVL2 (antibody, human IgG4 S228P, kappa)
heavy: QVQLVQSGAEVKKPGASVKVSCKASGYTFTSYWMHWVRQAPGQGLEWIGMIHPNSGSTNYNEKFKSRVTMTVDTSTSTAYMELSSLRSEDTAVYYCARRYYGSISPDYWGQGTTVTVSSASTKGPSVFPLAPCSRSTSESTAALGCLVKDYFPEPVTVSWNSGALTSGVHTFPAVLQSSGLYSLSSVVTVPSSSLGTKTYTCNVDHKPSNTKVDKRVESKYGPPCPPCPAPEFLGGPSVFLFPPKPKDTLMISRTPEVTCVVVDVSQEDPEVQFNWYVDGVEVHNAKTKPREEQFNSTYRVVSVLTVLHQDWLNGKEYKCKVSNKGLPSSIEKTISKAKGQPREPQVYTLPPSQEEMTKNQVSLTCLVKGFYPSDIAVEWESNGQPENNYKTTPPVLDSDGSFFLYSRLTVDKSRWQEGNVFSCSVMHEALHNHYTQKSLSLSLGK
light: B1 light
notes: humanized 1E7, human IgG4, kappa

- EC50 [1]: 0.21 µg/mL
- Kd [2]: 7.06 nM
- koff [2]: 7.06e-05 s⁻¹
- kon [2]: 9990 M⁻¹ s⁻¹
B4: 1B6-huVH4huVL2 (antibody, human IgG4 S228P, kappa)
heavy: not shown
light: B1 light with L30F, F102L
notes: as for B2

- EC50 [1]: 0.0397 µg/mL
- Kd [2]: 10.7 nM
- koff [2]: 0.000126 s⁻¹
- kon [2]: 11800 M⁻¹ s⁻¹
B5: 1E7-huVH4-HC (IgG1) huVL2 (antibody)
heavy: not shown
light: B1 light
notes: as for B1

- EC50 [1]: 0.0775 µg/mL
- Kd [2]: 10.6 nM
- koff [2]: 0.000164 s⁻¹
- kon [2]: 15500 M⁻¹ s⁻¹
B6: 1B6-huVH1huVL2 (antibody, human IgG4 S228P, kappa)
heavy: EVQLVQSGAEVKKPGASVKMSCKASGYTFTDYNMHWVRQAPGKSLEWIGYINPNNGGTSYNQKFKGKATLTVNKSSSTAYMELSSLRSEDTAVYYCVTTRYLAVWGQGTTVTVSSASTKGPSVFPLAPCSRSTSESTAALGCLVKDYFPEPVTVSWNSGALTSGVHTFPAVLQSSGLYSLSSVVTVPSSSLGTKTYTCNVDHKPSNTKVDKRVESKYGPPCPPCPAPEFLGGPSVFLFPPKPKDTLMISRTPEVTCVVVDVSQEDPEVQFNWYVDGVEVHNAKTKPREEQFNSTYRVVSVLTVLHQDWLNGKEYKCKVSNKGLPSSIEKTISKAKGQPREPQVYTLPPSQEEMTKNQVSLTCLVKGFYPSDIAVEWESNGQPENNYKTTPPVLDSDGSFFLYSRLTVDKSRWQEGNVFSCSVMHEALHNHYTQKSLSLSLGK
light: B1 light with L30F, F102L
notes: as for B2

- EC50 [1]: 0.441 µg/mL
- Kd [2]: 6.19 nM
- koff [2]: 6.27e-05 s⁻¹
- kon [2]: 10100 M⁻¹ s⁻¹
B7: 1E7-huVH4huVL3 (antibody, human IgG4 S228P, kappa)
heavy: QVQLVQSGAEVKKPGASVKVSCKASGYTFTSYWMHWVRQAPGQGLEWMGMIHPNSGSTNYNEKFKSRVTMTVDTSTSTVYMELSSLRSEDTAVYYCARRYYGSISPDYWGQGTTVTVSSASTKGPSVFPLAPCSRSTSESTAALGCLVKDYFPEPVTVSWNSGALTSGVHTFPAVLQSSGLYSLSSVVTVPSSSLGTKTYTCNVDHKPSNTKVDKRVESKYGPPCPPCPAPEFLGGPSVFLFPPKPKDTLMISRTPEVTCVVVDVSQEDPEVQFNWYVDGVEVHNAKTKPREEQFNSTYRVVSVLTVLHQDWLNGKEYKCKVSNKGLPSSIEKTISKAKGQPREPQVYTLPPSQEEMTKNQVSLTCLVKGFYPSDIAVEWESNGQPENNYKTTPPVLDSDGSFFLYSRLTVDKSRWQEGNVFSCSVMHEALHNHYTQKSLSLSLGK
light: B1 light with M21I, K24R
notes: as for B3

- EC50 [1]: 0.309 µg/mL
- Kd [2]: 4.6 nM
- koff [2]: 4.86e-05 s⁻¹
- kon [2]: 10600 M⁻¹ s⁻¹
B8: 1E7-huVH4huVL2 (antibody, human IgG4 S228P, kappa)
heavy: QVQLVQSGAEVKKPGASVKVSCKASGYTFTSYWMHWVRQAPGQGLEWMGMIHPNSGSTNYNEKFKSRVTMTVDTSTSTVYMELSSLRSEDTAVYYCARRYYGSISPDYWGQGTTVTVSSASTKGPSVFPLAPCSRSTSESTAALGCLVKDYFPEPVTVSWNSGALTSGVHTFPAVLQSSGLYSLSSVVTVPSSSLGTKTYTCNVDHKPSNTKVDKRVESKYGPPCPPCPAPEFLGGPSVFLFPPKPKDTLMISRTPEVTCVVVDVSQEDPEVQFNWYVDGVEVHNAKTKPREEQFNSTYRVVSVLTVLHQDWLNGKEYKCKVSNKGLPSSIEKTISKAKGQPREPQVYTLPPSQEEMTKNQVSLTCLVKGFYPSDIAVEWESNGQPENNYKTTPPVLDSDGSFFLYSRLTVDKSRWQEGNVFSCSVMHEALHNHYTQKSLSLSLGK
light: B1 light
notes: humanized 1E7, human IgG4, kappa; also called P04902

- EC50 [1]: 0.0305 µg/mL
- Kd [2]: 4.85 nM
- koff [2]: 5.87e-05 s⁻¹
- kon [2]: 12100 M⁻¹ s⁻¹
B9: 1E7-huVH1-HC (IgG1) huVL2 (antibody)
heavy: not shown
light: B1 light
notes: as for B1

- EC50 [1]: 0.156 µg/mL
- Kd [2]: 5.08 nM
- koff [2]: 5.56e-05 s⁻¹
- kon [2]: 10900 M⁻¹ s⁻¹
B10: 1E7-huVH1huVL2 (antibody, human IgG4 S228P, kappa)
heavy: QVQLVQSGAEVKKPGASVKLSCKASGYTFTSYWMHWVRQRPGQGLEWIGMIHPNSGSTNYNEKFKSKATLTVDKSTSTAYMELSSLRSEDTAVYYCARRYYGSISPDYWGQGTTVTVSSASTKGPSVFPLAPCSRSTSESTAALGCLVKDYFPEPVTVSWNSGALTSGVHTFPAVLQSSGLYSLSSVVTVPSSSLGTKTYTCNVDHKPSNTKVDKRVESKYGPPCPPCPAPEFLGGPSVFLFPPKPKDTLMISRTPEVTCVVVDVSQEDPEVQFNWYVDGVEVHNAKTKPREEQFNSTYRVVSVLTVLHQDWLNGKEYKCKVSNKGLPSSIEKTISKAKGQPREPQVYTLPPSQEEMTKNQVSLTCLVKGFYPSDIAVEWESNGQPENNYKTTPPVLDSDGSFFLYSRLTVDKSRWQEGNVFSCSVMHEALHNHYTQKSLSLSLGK
light: B1 light
notes: as for B3

- EC50 [1]: 0.174 µg/mL
- Kd [2]: 7.51 nM
- koff [2]: 9.78e-05 s⁻¹
- kon [2]: 13000 M⁻¹ s⁻¹
B11: 1B6-huVH5huVL3 (antibody, human IgG4 S228P, kappa)
heavy: not shown
light: B1 light with M21I, K24R, L30F, F102L
notes: as for B2

- EC50 [1]: 0.05 µg/mL
- Kd [2]: 2.64 nM
- koff [2]: 2.99e-05 s⁻¹
- kon [2]: 11300 M⁻¹ s⁻¹
B12: 1E7-huVH4-HC (IgG1) huVL3 (antibody)
heavy: not shown
light: B1 light with M21I, K24R
notes: as for B1

- EC50 [1]: 0.192 µg/mL
- Kd [2]: 4.86 nM
- koff [2]: 6.78e-05 s⁻¹
- kon [2]: 13900 M⁻¹ s⁻¹
B13: 1B6-huVH2huVL2 (antibody, human IgG4 S228P, kappa)
heavy: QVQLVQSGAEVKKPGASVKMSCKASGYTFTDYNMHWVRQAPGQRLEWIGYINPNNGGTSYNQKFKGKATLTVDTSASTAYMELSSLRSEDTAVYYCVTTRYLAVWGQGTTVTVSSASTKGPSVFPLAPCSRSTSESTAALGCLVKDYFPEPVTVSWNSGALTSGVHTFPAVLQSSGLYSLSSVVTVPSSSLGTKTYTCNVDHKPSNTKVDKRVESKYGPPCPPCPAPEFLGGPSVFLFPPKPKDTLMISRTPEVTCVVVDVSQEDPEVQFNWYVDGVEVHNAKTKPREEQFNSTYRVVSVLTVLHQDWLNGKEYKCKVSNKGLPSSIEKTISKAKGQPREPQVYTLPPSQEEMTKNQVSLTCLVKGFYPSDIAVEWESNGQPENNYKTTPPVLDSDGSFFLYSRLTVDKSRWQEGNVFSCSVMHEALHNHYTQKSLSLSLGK
light: B1 light with L30F, F102L
notes: as for B2

- EC50 [1]: 0.509 µg/mL
- Kd [2]: 13.5 nM
- koff [2]: 0.000149 s⁻¹
- kon [2]: 11000 M⁻¹ s⁻¹
B14: 1E7-huVH3huVL3 (antibody, human IgG4 S228P, kappa)
heavy: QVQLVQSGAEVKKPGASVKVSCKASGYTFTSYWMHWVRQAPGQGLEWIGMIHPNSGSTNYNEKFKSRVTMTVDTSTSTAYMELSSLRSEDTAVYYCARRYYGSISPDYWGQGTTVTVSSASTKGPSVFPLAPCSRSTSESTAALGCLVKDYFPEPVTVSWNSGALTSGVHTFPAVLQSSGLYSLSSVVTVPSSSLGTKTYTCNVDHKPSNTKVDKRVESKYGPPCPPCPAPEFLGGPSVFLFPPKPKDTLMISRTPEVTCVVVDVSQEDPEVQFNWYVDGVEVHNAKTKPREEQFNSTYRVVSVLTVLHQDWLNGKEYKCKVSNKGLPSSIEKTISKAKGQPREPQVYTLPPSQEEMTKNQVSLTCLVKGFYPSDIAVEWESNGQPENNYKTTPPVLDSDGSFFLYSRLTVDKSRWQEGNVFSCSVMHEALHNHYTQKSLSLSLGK
light: B1 light with M21I, K24R
notes: as for B3

- EC50 [1]: 0.0931 µg/mL
- Kd [2]: 3.21 nM
- koff [2]: 3.09e-05 s⁻¹
- kon [2]: 9610 M⁻¹ s⁻¹
B15: 1E7-huVH5huVL3 (antibody, human IgG4 S228P, kappa)
heavy: not shown
light: B1 light with M21I, K24R
notes: as for B3

- EC50 [1]: 0.309 µg/mL
- Kd [2]: 3.58 nM
- koff [2]: 3.81e-05 s⁻¹
- kon [2]: 10600 M⁻¹ s⁻¹
B16: 1E7-huVH1huVL1 (antibody, human IgG4 S228P, kappa)
heavy: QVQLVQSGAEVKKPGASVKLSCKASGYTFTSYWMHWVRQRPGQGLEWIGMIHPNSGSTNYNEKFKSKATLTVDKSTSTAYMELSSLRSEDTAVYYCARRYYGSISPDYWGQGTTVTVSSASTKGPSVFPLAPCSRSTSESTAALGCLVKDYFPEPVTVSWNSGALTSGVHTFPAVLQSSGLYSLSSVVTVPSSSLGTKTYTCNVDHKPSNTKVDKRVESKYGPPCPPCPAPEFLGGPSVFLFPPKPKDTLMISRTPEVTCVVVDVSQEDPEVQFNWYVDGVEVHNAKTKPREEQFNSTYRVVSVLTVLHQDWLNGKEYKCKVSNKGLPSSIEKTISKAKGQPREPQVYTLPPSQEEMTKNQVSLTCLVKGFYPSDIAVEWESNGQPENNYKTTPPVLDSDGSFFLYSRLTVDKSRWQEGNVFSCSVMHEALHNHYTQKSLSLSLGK
light: B1 light with Q3V, A13V, K48Q, A49P, S66D, L84V
notes: as for B3

- EC50 [1]: 0.436 µg/mL
- Kd [2]: 0.277 nM
- koff [2]: 2.65e-06 s⁻¹
- kon [2]: 9550 M⁻¹ s⁻¹
B17: 1E7-huVH2huVL1 (antibody, human IgG4 S228P, kappa)
heavy: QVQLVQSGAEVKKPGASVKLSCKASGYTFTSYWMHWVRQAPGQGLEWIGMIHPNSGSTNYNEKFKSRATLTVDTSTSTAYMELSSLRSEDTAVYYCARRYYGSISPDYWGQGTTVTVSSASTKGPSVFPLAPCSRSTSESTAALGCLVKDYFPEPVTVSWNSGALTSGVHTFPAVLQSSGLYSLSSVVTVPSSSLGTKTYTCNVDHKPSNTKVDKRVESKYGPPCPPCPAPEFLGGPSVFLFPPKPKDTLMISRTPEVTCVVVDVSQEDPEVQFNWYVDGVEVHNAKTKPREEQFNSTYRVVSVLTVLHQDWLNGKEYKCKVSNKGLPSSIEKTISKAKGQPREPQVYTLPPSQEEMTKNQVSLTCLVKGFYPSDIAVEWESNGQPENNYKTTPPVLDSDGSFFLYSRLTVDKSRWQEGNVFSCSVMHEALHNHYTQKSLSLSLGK
light: B1 light with Q3V, A13V, K48Q, A49P, S66D, L84V
notes: as for B3

- EC50 [1]: 0.0569 µg/mL
- Kd [2]: 0.98 nM
- koff [2]: 1.27e-05 s⁻¹
- kon [2]: 13000 M⁻¹ s⁻¹
B18: 1B6-huVH3huVL1 (antibody, human IgG4 S228P, kappa)
heavy: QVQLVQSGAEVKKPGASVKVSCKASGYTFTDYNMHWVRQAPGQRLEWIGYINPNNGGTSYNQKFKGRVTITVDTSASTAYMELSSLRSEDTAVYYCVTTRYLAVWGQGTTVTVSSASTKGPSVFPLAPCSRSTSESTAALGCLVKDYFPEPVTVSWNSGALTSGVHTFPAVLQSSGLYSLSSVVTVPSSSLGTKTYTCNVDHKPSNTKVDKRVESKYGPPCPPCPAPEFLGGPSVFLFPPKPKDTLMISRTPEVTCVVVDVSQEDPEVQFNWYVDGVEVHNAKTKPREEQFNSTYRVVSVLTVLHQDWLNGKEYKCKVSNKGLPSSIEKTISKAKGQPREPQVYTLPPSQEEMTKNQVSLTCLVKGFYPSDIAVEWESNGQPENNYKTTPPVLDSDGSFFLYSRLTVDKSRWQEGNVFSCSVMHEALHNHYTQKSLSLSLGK
light: B1 light with Q3V, A13V, L30F, S66D, L84V, Y93F, F102L
notes: humanized 1B6, human IgG4, kappa; also called P04887
